Results reported in patent publication US20250250357A1 (NANJING ZAIMING PHARMACEUTICAL, published 2025).

How the values were obtained:
[1] = biological target: T1, human MSLN-FL-his protein (human, UniProt Q13421 296-580); test: competitive ELISA; row F2.58.8
T1 construct: made in HEK293E cells, purified on nickel column; also called hMSLN-FL-his; human MSLN full-length protein; not shown: His tag
T1 sequence (Q13421 other isoform, or with tags, fused parts or gaps): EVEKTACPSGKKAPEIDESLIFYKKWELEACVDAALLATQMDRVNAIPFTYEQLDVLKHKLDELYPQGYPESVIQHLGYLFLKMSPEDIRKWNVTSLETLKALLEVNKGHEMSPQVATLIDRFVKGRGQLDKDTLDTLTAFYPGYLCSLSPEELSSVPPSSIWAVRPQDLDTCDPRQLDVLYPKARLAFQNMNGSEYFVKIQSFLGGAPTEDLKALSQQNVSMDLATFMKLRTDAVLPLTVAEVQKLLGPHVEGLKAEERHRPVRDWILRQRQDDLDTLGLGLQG

[2] = biological target: T2, human MSLN protein, endogenously expressed on Hela and OVCAR3 cells (human, UniProt Q13421 296-598); test: FACS on OVCAR3 cells; antibody 4 nM
T2 construct: whole, on cells; also called mesothelin
T2 sequence (Q13421 other isoform, or with tags, fused parts or gaps): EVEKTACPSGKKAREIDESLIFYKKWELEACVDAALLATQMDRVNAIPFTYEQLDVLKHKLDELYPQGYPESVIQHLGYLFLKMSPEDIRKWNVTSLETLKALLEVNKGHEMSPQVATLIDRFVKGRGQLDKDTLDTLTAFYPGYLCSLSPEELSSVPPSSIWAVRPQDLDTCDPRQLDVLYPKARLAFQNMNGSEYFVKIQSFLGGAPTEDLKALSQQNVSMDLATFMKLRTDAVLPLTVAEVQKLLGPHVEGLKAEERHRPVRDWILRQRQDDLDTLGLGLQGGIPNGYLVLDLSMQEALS

[3] = biological target: T3, human MSLN-R2-his protein (human, UniProt Q13421 391-486); test: ELISA; antibody 0.0001 nM
T3 construct: also called hMSLN-R2-his; not shown: His tag
T3 sequence (Q13421 other isoform, or with tags, fused parts or gaps): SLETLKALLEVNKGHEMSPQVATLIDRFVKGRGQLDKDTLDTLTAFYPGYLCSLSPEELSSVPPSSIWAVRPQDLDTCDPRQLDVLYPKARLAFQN

[4] = biological target: T1, human MSLN-FL-his protein; test: competitive ELISA; row F1.35.24
Procedure: (§1) In order to identify antigen-binding sites of antibodies, MSLN chimeric antibodies were grouped using competitive ELISA.
(§2) The chimeric antibodies were diluted to 2 μg/mL with PBS and allowed to coat 96-well high-adsorption ELISA plates at 50 μL/well. After the plates were coated at 4° C. overnight, 250 μL of a blocking buffer (PBS containing 2% (w/w) BSA) was added for two hours of blocking at room temperature. 40 μg/mL of the antibodies to be tested were added, and then the human MSLN-FL-His protein with an EC₈₀ concentration corresponding to each of the antibodies to be tested was added for incubation for 2 h. The plates were washed 5 times with PBS, an HRP-labeled anti-His secondary antibody (purchased from Genescript, Cat. No. A00612) was then added for incubation for 1 h, and the plates were washed 5 times again. A TMB substrate was added at 50 μL/well, and after 10 minutes of incubation at room temperature, a stop solution (1.0 M HCl) was added at 50 μL/well. OD₄₅₀ nm values were read using an ELISA plate reader (Insight, purchased from PerkinElmer), and the competition rate between the antibodies was calculated according to the OD₄₅₀ nm values using a formula.

[5] = biological target: T4, human MSLN-FL-his protein (human, UniProt Q13421 296-580); test: ELISA; antibody 1 nM
T4 construct: also called hMSLN-FL-his; human MSLN full-length protein; not shown: His tag

[6] = biological target: T5, human MSLN-R1-his protein (human, UniProt Q13421 296-390); test: ELISA; antibody 1 nM
T5 construct: also called hMSLN-R1-his; human MSLN-R1 protein; not shown: His tag
T5 chain: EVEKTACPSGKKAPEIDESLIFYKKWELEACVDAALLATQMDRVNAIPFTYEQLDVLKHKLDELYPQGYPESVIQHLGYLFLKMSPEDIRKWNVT

[7] = biological target: T3, human MSLN-R2-his protein; test: ELISA; antibody 1 nM
[8] = biological target: T6, human MSLN-R3-his protein (human, UniProt Q13421 487-598); test: ELISA; antibody 1 nM
T6 construct: also called hMSLN-R3-his; not shown: His tag
T6 sequence (Q13421 495-606): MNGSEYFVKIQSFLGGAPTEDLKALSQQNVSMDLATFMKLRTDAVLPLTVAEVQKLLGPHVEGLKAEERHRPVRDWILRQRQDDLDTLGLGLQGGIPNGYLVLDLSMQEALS

[9] = biological target: T3, human MSLN-R2-his protein; test: ELISA; antibody 0.001 nM
[10] = biological target: T6, human MSLN-R3-his protein; test: ELISA; antibody 10 nM
[11] = biological target: T2, human MSLN protein, endogenously …; test: FACS on OVCAR3 cells; antibody 0.8 nM
[12] = biological target: T3, human MSLN-R2-his protein; test: ELISA; antibody 0.1 nM
[13] = biological target: T6, human MSLN-R3-his protein; test: ELISA; antibody 0.001 nM
[14] = biological target: T3, human MSLN-R2-his protein; test: ELISA; antibody 100 nM
[15] = biological target: T2, human MSLN protein, endogenously …; test: FACS on OVCAR3 cells; antibody 0.032 nM
[16] = biological target: T2, human MSLN protein, endogenously …; test: FACS on OVCAR3 cells; antibody 0.00128 nM
[17] = biological target: T1, human MSLN-FL-his protein; test: competitive ELISA; row F2.39.3
Procedure: as §1, §2

[18] = biological target: T2, human MSLN protein, endogenously …; test: FACS on OVCAR3 cells; antibody 0.0064 nM
[19] = biological target: T3, human MSLN-R2-his protein; test: ELISA; antibody 1 nM; remark: listed apart in the source
[20] = biological target: T6, human MSLN-R3-his protein; test: ELISA; antibody 0.01 nM
[21] = biological target: T6, human MSLN-R3-his protein; test: ELISA; antibody 1 nM; remark: listed apart in the source
[22] = biological target: T2, human MSLN protein, endogenously …; test: FACS on OVCAR3 cells; antibody 0.16 nM
[23] = biological target: T1, human MSLN-FL-his protein; test: competitive ELISA; row F2.13.3
Procedure: as §1, §2

[24] = biological target: T3, human MSLN-R2-his protein; test: ELISA; antibody 0.01 nM
[25] = biological target: T1, human MSLN-FL-his protein; test: competitive ELISA; row F2.17.3
Procedure: as §1, §2

[26] = biological target: T1, human MSLN-FL-his protein; test: competitive ELISA; row F1.56.1
Procedure: as §1, §2

[27] = biological target: T6, human MSLN-R3-his protein; test: ELISA; antibody 0.1 nM
[28] = biological target: T3, human MSLN-R2-his protein; test: ELISA; antibody 10 nM
[29] = biological target: T6, human MSLN-R3-his protein; test: ELISA; antibody 0.0001 nM
[30] = biological target: T1, human MSLN-FL-his protein; test: competitive ELISA; row Tab107 (conformation)
Procedure: as §1, §2

[31] = biological target: T2, human MSLN protein, endogenously …; test: FACS on OVCAR3 cells; antibody 100 nM

competition rate [1]: 9%
FACS fluorescence intensity [2]: 1520
OD450 nm [3]: 0.04
competition rate [4]: 8%
OD450 nm [5]: 1.74
OD450 nm [6]: 0.05
OD450 nm [7]: 0.05
OD450 nm [8]: 0.05
OD450 nm [9]: 0.05
OD450 nm [10]: 0.05
FACS fluorescence intensity [11]: 619
OD450 nm [12]: 0.04
OD450 nm [13]: 0.05
OD450 nm [14]: 0.09
FACS fluorescence intensity [15]: 111
FACS fluorescence intensity [16]: 76
competition rate [17]: -24%
FACS fluorescence intensity [18]: 80
OD450 nm [19]: 0.05
OD450 nm [20]: 0.04
OD450 nm [21]: 0.05
FACS fluorescence intensity [22]: 229
competition rate [23]: -203%
OD450 nm [24]: 0.04
competition rate [25]: -86%
competition rate [26]: -124%
OD450 nm [27]: 0.05
OD450 nm [28]: 0.05
OD450 nm [29]: 0.05
competition rate [30]: 94%
FACS fluorescence intensity [31]: 3150
B1: Tab107 (YP3, hIgG1) (antibody, V domains shown)
VH: QEQLVESGGGLVQPGASLTLTCTASGIDFSRYYMCWVRQAPGKGLEGIACIYIGGSGSTYYASWAKGRFTISKASSTTVTLQMTSLTAADTATYFCARGTNLNYIFRLWGPGTLVTVSS
VL: DVVMTQTPSPVSAAVGGTVTIKCQASQSINNGLAWYQQKPGQPPRLLIYSASNLESGVPSRFKGSGSGTEFTLTISDLECDDAATYYCQCIWDGNSYVNAFGGGTEVVVRT
notes: Control antibody; VH and VL recombined into human IgG1 CH and CL expression vectors; also called YP3 human IgG1 antibody
